{"source": "paper PMC9097876", "about": "(Science Immunology, 2022)", "binders": {"B1": {"name": "G32Q4 Fab (Fab, V domains shown)", "VH": "QVQLVESGGGVVQPGRSLRLSCAASGFTFSRYAMQWVRQAPGKGLEWVAVISYDGNNRYYADSVKGRFTISRDNSKNTLYLQMNSLRAEDTAVYYCARGPPGYYDSSGYYQTPEYFQHWGQGTLVTVSS", "VL": "QSVLTQPPSVSGAPGQRVTISCTGSSSNIGVGYDVHWYQQFPGTVPKLLIYGNSNRPSGVPDRFSGSKSGTSASLAITGLQAEDEADYYCQSYDSSLSGVVFGGGTKLTVL"}}, "target": "T1, SARS-CoV-2 spike receptor-binding domain (RBD), original Wuhan isolate (SARS-CoV-2, Wuhan isolate, UniProt P0DTC2)", "T1 construct": "not shown: His tag, C-terminal, kept", "experiment": "BLI", "settings": "both partners purified", "data": [{"binder": "B1", "values": [{"measurement": "koff", "value": 0.0066, "unit": "s⁻¹"}, {"measurement": "kon", "value": "1.2e+06", "unit": "M⁻¹ s⁻¹"}]}]}
